{"source": "patent US10098870B2", "about": "(JENKEM TECHNOLOGY CO., LTD. (BEIJING), priority 2013, dated 2018)", "key": {"[1]": {"test": "Body weight, survival and tolerance of mice bearing plc/prf/5 (Example 6)", "type": "in vivo, nude mouse", "settings": "mean ± SE", "from_the_text": "Wherein QW×4W represents intravenous injection once a week for 4 weeks, BIW×4W represents intravenous injection […] for 4 weeks, the same below. (2) Experimental Results"}, "[2]": {"test": "Body weight, survival and tolerance of mice bearing Hep3B (Example 7)", "type": "in vivo, mouse", "settings": "mean ± SE"}, "[3]": {"test": "Body weight, survival and tolerance of mice bearing H460 (Example 8)", "settings": "mean ± SE", "experimental": "5.0×10^6 of H460 tumor cells were suspended in 0.1 ml of PBS, inoculated to each nude mouse at the right shoulder, and there were totally 34 mice inoculated. 8 days later the mean tumor volume was desired to reach about 143 mm^3, the mice with a smaller or larger tumor were removed and the remaining 24 mice were divided into groups randomly according to tumor volume and administrated."}, "[4]": {"test": "Body weight, survival and tolerance of mice bearing Calu-6 (Example 9);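 further: nude mice bearing Calu-6 tumours, established by implanting 5.0×10^6 cells at the right shoulder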", "settings": "mean ± SE", "experimental": "5.0×10^6 of Calu-6 tumor cells were suspended in 0.1 ml of PBS, inoculated to each nude mouse at the right shoulder, and there were totally 34 mice inoculated."}, "[5]": {"tested_on": "A549 human non-small cell lung cancer cells", "test": "Anti-tumor effect on xenograft tumor model of A549 in nude mice (Example 10);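 further: nude mice bearing A549 xenografts established by inoculating 1.0×10^7 cells in PBS at the right shoulder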", "settings": "for T/C (%) RTV / T/C (%) TW: vs physiological saline", "experimental": "A549 cells were cultured with a monolayer in vitro in RPMI1640 medium supplied with heat-inactivated fetal bovine serum with a volume ratio of 10%, and an incubator at 37° C. with the air containing CO2 with a proportion of 5%. The tumor cells were passaged with digestion by trypsin-EDTA twice a week. The cells in the exponential growth phase were collected, counted, and used for inoculation.\n1.0×10^7 of A549 tumor cells were suspended in 0.1 ml of PBS, inoculated to each nude mouse at the right shoulder, and there were totally 36 mice inoculated."}, "[6]": {"settings": "day 17 after inoculation, 30 mg/kg i.v. BIW×4W"}, "[7]": {"settings": "day 17 after inoculation, 45 mg/kg i.v. QW×4W"}, "[8]": {"settings": "day 20 after inoculation, 30 mg/kg i.v. BIW×4W"}, "[9]": {"settings": "day 20 after inoculation, 45 mg/kg i.v. QW×4W"}, "[10]": {"settings": "day 24 after inoculation, 30 mg/kg i.v. BIW×4W"}, "[11]": {"settings": "day 24 after inoculation, 45 mg/kg i.v. QW×4W"}, "[12]": {"settings": "day 27 after inoculation, 30 mg/kg i.v. BIW×4W"}, "[13]": {"settings": "day 27 after inoculation, 45 mg/kg i.v. QW×4W"}, "[14]": {"settings": "day 31 after inoculation, 30 mg/kg i.v. BIW×4W"}, "[15]": {"settings": "day 31 after inoculation, 45 mg/kg i.v. QW×4W"}, "[16]": {"settings": "day 34 after inoculation, 30 mg/kg i.v. BIW×4W"}, "[17]": {"settings": "day 34 after inoculation, 45 mg/kg i.v. QW×4W"}, "[18]": {"settings": "day 38 after inoculation, 30 mg/kg i.v. BIW×4W"}, "[19]": {"settings": "52nd day, 30 mg/kg i.v. BIW×4W, Mean ± SEM"}}, "data": [{"substance": "monomethoxy polyethylene glycol (20K)-glutamic acid dipeptide-rapamycin conjugate [LPR-2]", "values": [{"measurement": "Body weight of animal", "setting": "[1]; day 10 after inoculation, 30 mg/kg i.v. BIW×4W", "value": "19.9 ± 0.5", "unit": "g"}, {"measurement": "Body weight of animal", "setting": "[1]; day 10 after inoculation, 45 mg/kg i.v. QW×4W", "value": "19.8 ± 0.5", "unit": "g"}, {"measurement": "Body weight of animal", "setting": "[1]; day 13 after inoculation, 30 mg/kg i.v. BIW×4W", "value": "19.6 ± 0.8", "unit": "g"}, {"measurement": "Body weight of animal", "setting": "[1]; day 13 after inoculation, 45 mg/kg i.v. QW×4W", "value": "18.9 ± 0.5", "unit": "g"}, {"measurement": "Body weight of animal", "setting": "[1]; [6]", "value": "20.7 ± 0.7", "unit": "g"}, {"measurement": "Body weight of animal", "setting": "[1]; [7]", "value": "20.2 ± 0.3", "unit": "g"}, {"measurement": "Body weight of animal", "setting": "[1]; [8]", "value": "20.4 ± 0.6", "unit": "g"}, {"measurement": "Body weight of animal", "setting": "[1]; [9]", "value": "19.7 ± 0.3", "unit": "g"}, {"measurement": "Body weight of animal", "setting": "[1]; [10]", "value": "20.6 ± 0.7", "unit": "g"}, {"measurement": "Body weight of animal", "setting": "[1]; [11]", "value": "21.1 ± 0.3", "unit": "g"}, {"measurement": "Body weight of animal", "setting": "[1]; [12]", "value": "20.5 ± 0.6", "unit": "g"}, {"measurement": "Body weight of animal", "setting": "[1]; [13]", "value": "20.7 ± 0.2", "unit": "g"}, {"measurement": "Body weight of animal", "setting": "[1]; [14]", "value": "20.1 ± 0.6", "unit": "g"}, {"measurement": "Body weight of animal", "setting": "[1]; [15]", "value": "21.0 ± 0.2", "unit": "g"}, {"measurement": "Body weight of animal", "setting": "[1]; [16]", "value": "19.5 ± 0.6", "unit": "g"}, {"measurement": "Body weight of animal", "setting": "[1]; [17]", "value": "19.7 ± 0.5", "unit": "g"}, {"measurement": "Body weight of animal", "setting": "[1]; [18]", "value": "19.8 ± 0.7", "unit": "g"}, {"measurement": "Body weight of animal", "setting": "[1]; day 38 after inoculation, 45 mg/kg i.v. QW×4W", "value": "20.7 ± 0.3", "unit": "g"}, {"measurement": "Body weight of animal", "setting": "[2]; day 16 after inoculation, 30 mg/kg i.v. BIW×4W", "value": "20.2 ± 0.6", "unit": "g"}, {"measurement": "Body weight of animal", "setting": "[2]; day 16 after inoculation, 45 mg/kg i.v. QW×4W", "value": "19.2 ± 0.5", "unit": "g"}, {"measurement": "Body weight of animal", "setting": "[2]; [8]", "value": "19.7 ± 0.4", "unit": "g"}, {"measurement": "Body weight of animal", "setting": "[2]; [9]", "value": "18.6 ± 0.4", "unit": "g"}, {"measurement": "Body weight of animal", "setting": "[2]; day 23 after inoculation, 30 mg/kg i.v. BIW×4W", "value": "20.4 ± 0.5", "unit": "g"}, {"measurement": "Body weight of animal", "setting": "[2]; day 23 after inoculation, 45 mg/kg i.v. QW×4W", "value": "18.6 ± 0.4", "unit": "g"}, {"measurement": "Body weight of animal", "setting": "[2]; [12]", "value": "19.7 ± 0.5", "unit": "g"}, {"measurement": "Body weight of animal", "setting": "[2]; [13]", "value": "17.9 ± 0.4", "unit": "g"}, {"measurement": "Body weight of animal", "setting": "[2]; day 30 after inoculation, 30 mg/kg i.v. BIW×4W", "value": "19.1 ± 0.5", "unit": "g"}, {"measurement": "Body weight of animal", "setting": "[2]; day 30 after inoculation, 45 mg/kg i.v. QW×4W", "value": "18.2 ± 0.4", "unit": "g"}, {"measurement": "Body weight of animal", "setting": "[2]; [16]", "value": "19.1 ± 0.6", "unit": "g"}, {"measurement": "Body weight of animal", "setting": "[2]; [17]", "value": "18.2 ± 0.4", "unit": "g"}, {"measurement": "Body weight of animal", "setting": "[2]; day 37 after inoculation, 30 mg/kg i.v. BIW×4W", "value": "18.6 ± 0.4", "unit": "g"}, {"measurement": "Body weight of animal", "setting": "[2]; day 37 after inoculation, 45 mg/kg i.v. QW×4W", "value": "18.0 ± 0.3", "unit": "g"}, {"measurement": "Body weight of animal", "setting": "[2]; day 41 after inoculation, 30 mg/kg i.v. BIW×4W", "value": "17.9 ± 0.3", "unit": "g"}, {"measurement": "Body weight of animal", "setting": "[2]; day 41 after inoculation, 45 mg/kg i.v. QW×4W", "value": "16.7 ± 0.5", "unit": "g"}, {"measurement": "Body weight of animal", "setting": "[2]; day 44 after inoculation, 30 mg/kg i.v. BIW×4W", "value": "17.3 ± 0.3", "unit": "g"}, {"measurement": "Body weight of animal", "setting": "[2]; day 44 after inoculation, 45 mg/kg i.v. QW×4W", "value": "17.1 ± 0.4", "unit": "g"}, {"measurement": "Body weight of animal", "setting": "[3]; day 8 after inoculation, 30 mg/kg i.v. BIW×3W", "value": "20.5 ± 0.5", "unit": "g"}, {"measurement": "Body weight of animal", "setting": "[3]; day 8 after inoculation, 45 mg/kg i.v. QW×3W", "value": "20.2 ± 0.4", "unit": "g"}, {"measurement": "Body weight of animal", "setting": "[3]; day 12 after inoculation, 30 mg/kg i.v. BIW×3W", "value": "20.3 ± 0.5", "unit": "g"}, {"measurement": "Body weight of animal", "setting": "[3]; day 12 after inoculation, 45 mg/kg i.v. QW×3W", "value": "19.8 ± 0.3", "unit": "g"}, {"measurement": "Body weight of animal", "setting": "[3]; day 15 after inoculation, 30 mg/kg i.v. BIW×3W", "value": "20.7 ± 0.4", "unit": "g"}, {"measurement": "Body weight of animal", "setting": "[3]; day 15 after inoculation, 45 mg/kg i.v. QW×3W", "value": "20.9 ± 0.3", "unit": "g"}, {"measurement": "Body weight of animal", "setting": "[3]; day 19 after inoculation, 30 mg/kg i.v. BIW×3W", "value": "21.0 ± 0.5", "unit": "g"}, {"measurement": "Body weight of animal", "setting": "[3]; day 19 after inoculation, 45 mg/kg i.v. QW×3W", "value": "20.7 ± 0.3", "unit": "g"}, {"measurement": "Body weight of animal", "setting": "[3]; day 22 after inoculation, 30 mg/kg i.v. BIW×3W", "value": "20.7 ± 0.4", "unit": "g"}, {"measurement": "Body weight of animal", "setting": "[3]; day 22 after inoculation, 45 mg/kg i.v. QW×3W", "value": "20.4 ± 0.3", "unit": "g"}, {"measurement": "Body weight of animal", "setting": "[3]; day 26 after inoculation, 30 mg/kg i.v. BIW×3W", "value": "20.9 ± 0.5", "unit": "g"}, {"measurement": "Body weight of animal", "setting": "[3]; day 26 after inoculation, 45 mg/kg i.v. QW×3W", "value": "21.4 ± 0.3", "unit": "g"}, {"measurement": "Body weight of animal", "setting": "[3]; day 29 after inoculation, 30 mg/kg i.v. BIW×3W", "value": "21.1 ± 0.4", "unit": "g"}, {"measurement": "Body weight of animal", "setting": "[3]; day 29 after inoculation, 45 mg/kg i.v. QW×3W", "value": "22.1 ± 0.3", "unit": "g"}, {"measurement": "Body weight of animal", "setting": "[4]; day 14 after inoculation, 30 mg/kg i.v. BIW×4W", "value": "20.9 ± 0.4", "unit": "g"}, {"measurement": "Body weight of animal", "setting": "[4]; day 14 after inoculation, 45 mg/kg i.v. QW×4W", "value": "20.6 ± 0.4", "unit": "g"}, {"measurement": "Body weight of animal", "setting": "[4]; [6]", "value": "21.0 ± 0.4", "unit": "g"}, {"measurement": "Body weight of animal", "setting": "[4]; [7]", "value": "20.0 ± 0.4", "unit": "g"}, {"measurement": "Body weight of animal", "setting": "[4]; day 21 after inoculation, 30 mg/kg i.v. BIW×4W", "value": "21.7 ± 0.4", "unit": "g"}, {"measurement": "Body weight of animal", "setting": "[4]; day 21 after inoculation, 45 mg/kg i.v. QW×4W", "value": "19.9 ± 0.6", "unit": "g"}, {"measurement": "Body weight of animal", "setting": "[4]; [10]", "value": "21.6 ± 0.3", "unit": "g"}, {"measurement": "Body weight of animal", "setting": "[4]; [11]", "value": "20.9 ± 0.5", "unit": "g"}, {"measurement": "Body weight of animal", "setting": "[4]; day 28 after inoculation, 30 mg/kg i.v. BIW×4W", "value": "22.4 ± 0.4", "unit": "g"}, {"measurement": "Body weight of animal", "setting": "[4]; day 28 after inoculation, 45 mg/kg i.v. QW×4W", "value": "21.3 ± 0.6", "unit": "g"}, {"measurement": "Body weight of animal", "setting": "[4]; [14]", "value": "21.6 ± 0.4", "unit": "g"}, {"measurement": "Body weight of animal", "setting": "[4]; [15]", "value": "20.7 ± 0.6", "unit": "g"}, {"measurement": "Body weight of animal", "setting": "[4]; day 35 after inoculation, 30 mg/kg i.v. BIW×4W", "value": "22.2 ± 0.4", "unit": "g"}, {"measurement": "Body weight of animal", "setting": "[4]; day 35 after inoculation, 45 mg/kg i.v. QW×4W", "value": "21.8 ± 0.6", "unit": "g"}, {"measurement": "Body weight of animal", "setting": "[4]; [18]", "value": "22.3 ± 0.4", "unit": "g"}, {"measurement": "Body weight of animal", "setting": "[4]; day 42 after inoculation, 30 mg/kg i.v. BIW×4W", "value": "22.4 ± 0.3", "unit": "g"}, {"measurement": "Body weight of animal", "setting": "[4]; day 42 after inoculation, 45 mg/kg i.v. QW×4W", "value": "21.5 ± 0.5", "unit": "g"}, {"measurement": "TGD (to 1,000 mm^3)", "setting": "[5]; 30 mg/kg i.v. BIW×4W", "value": ">7"}, {"measurement": "T/C (%) RTV", "setting": "[5]; 30 mg/kg i.v. BIW×4W", "value": 10, "unit": "%"}, {"measurement": "T/C (%) TW", "setting": "[5]; 30 mg/kg i.v. BIW×4W", "value": 8, "unit": "%"}, {"measurement": "TGD (to 1,000 mm^3)", "setting": "[5]; 45 mg/kg i.v. QW×4W", "value": ">7"}, {"measurement": "T/C (%) RTV", "setting": "[5]; 45 mg/kg i.v. QW×4W", "value": 11, "unit": "%"}, {"measurement": "T/C (%) TW", "setting": "[5]; 45 mg/kg i.v. QW×4W", "value": 10, "unit": "%"}, {"measurement": "RTV", "setting": "[5]; [19]", "value": "0.94 ± 0.11"}, {"measurement": "Tumor weight", "setting": "[5]; [19]", "value": "102 ± 15", "unit": "mg"}]}]}
